In one data set the target is T1, tPA (Homo sapiens, UniProt P00750).
T1 construct: purchased Boehringer-Ingelheim (Actilyse, Alteplase)
Briefly: tPA binding assay with immobilized biopharmaceuticals in an ELISA. Conditions: therapeutic coated 1:10; one-site binding fit. The protocol:
Nunc Immobilizer plates (Nalge Nunc, #436013, Rochester, N.Y., USA) were coated with 50 μL containing 5 μg/mL of sample protein (unless indicated otherwise) in 100 mM NaHCO3, pH 9.6, 0.05% m/v NaN3 for 1 hour at room temperature. Plates were washed twice with Tris buffered saline pH 7.2 containing 0.1% Tween20 (TBST) and blocked with PBS containing 1% Tween20 for 1 hour at room temperature. […] Plates were washed five times with TBST and incubated with peroxidase labeled anti-mouse immunoglobulins (RAMPO; DAKOCytomation, Glostrup, Denmark) diluted 1:3000 in PBST for 30 minutes at room temperature. Plates were washed five times with PBS 0.1% Tween20, and stained with 100 μL/well of tetramethyl-benzidine (TMB) substrate (Biosource Europe, Nivelles, Belgium). The reaction was terminated with 50 μL/well of 2 M H2SO4 and substrate conversion was read at 450 nm on a Spectramax340 microplate reader. Curves were fitted with a one-site binding model (GraphPad Prism version 4.02 for Windows, Graphpad Software, CA, USA) from which Kd and Bmax were determined.
Protein therapeutics were obtained from the local hospital pharmacy and analyzed within the expiry limits as stated by the manufacturers.

Data set [1] can be described thus: Stability testing of biopharmaceuticals under denaturing conditions (ThT fluorescence, tPA activation). It counts as physicochemical. As to conditions: ThT at 25 μg/mL, tPA activation at 100 μg/mL. The protocol: To mimic accelerated stability testing several therapeutics were exposed to denaturing conditions and assayed for amyloid-like properties before and after treatment by tPA activation assay at 100 μg/mL protein and ThT fluorescence enhancement assay at 25 μg/mL protein. For this purpose, 5 mg/mL Glucagon (Glucagen; Novo Nordisk Farma B.V., Alphen aan de Rijn, The Netherlands) was incubated at 37° C. in 0.01 M HCl for 48 hours. One mg/mL Etanercept (Enbrel; Wyeth Pharmaceuticals B.V., Hoofddorp, The Netherlands) in 67 mM sodium phosphate buffer, 100 mM NaCl pH 7.0 was gradually heated from 30° C. to 85° C. over a period of 12 minutes and afterwards cooled to 4° C. for 5 minutes, this treatment was repeated 4 times. Abciximab (Reopro; Centocor B.V., Leiden, The Netherlands) and Infliximab (Remicade; Schering-Plough B.V., Utrecht, The Netherlands) were incubated at 65° C. for 16 and 72 hours, respectively.

A further data set concerns the target T2, LRP cl-IV (Homo sapiens, UniProt Q07954).
T2 construct: Cluster IV of the low-density lipoprotein (LDL) receptor-related protein (LRP cl-IV) was cloned from complete cDNA of THP1 cells; made in house; host or cells: HEK293E/S cells; culture supernatant used without purification
Briefly: ELISA, binding of LRP cluster IV to misfolded proteins. Conditions: 5 μg/ml coated protein. The procedure:
Binding of LRP cl-IV to misfolded protein was determined using an enzyme linked immuno sorbent assay (ELISA) set-up. For this purpose 50 μl of a 5 μg/ml solution of BSA, BSA-AGE, Hb or Hb-AGE or coat buffer (for negative control) was coated for 1 h with motion. Proteins were diluted in coat buffer (100 mM NaHCO3 pH 9.6). The BSA and Hb controls were prepared freshly by dissolving proteins at 1 mg/ml in PBS by rolling for 10 minutes on a roller bank at room temperature, 10 minutes incubation at 37° C. followed by again 10 minutes incubation at the roller bank. Coat controls were performed with anti-glycated protein antibody 4B5, anti-albumin antibody or anti Hb antibody. After coating the plates were washed twice with PBS/0.1% Tween-20 (v/v) and blocked with 300 μl/well blocking reagent (Roche Diagnostics, Almere, The Netherlands) for 1 h at room temperature with motion. […] After five washes with wash buffer binding of antibody was assessed with a secondary antibody. […] After 5 washes with wash buffer, binding of anti-FLAG antibody and secondary antibodies was assessed with 100 μl/well TMB substrate (ready to use from Tebu Bio). […] After ˜2 minutes absorbance was read at 450 nm.

A further data set deals with T3, human BiP (Homo sapiens, UniProt P11021).
T3 construct: made in house; host or cells: HEK293E cells, transient transfection, protein purified from the medium
Put plainly: ELISA, binding of BiP to coated (mis)folded proteins. As to conditions: coated protein. The protocol:
The plates were blocked using Blocking reagent (Roche 1112589). A dilution series of the protein of interest was applied to the coated proteins and wells were subsequently washed using TBS-T (50 mM Tris pH 7.3, 150 mM NaCl and 0.1% Tween20). Bound protein is detected by the FLAG-tag using 1:3000 anti-FLAG-HRP (Sigma A-8592) in PBS-T, or by 1:1000 Ni-NTA-HRP (Qiagen 34530) in PBS-T. The HRP reaction Is performed using the TMB substrate (Biosource 4501103 or Tebu Bio 101TMB100-500), stopped using 10% H2SO4 and absorbance was measured at 450 nm.

Data set [2] in a line: ThT fluorescence of CpG-ODN-protein mixtures. As to conditions: for increase in ThT fluorescence / ThT fluorescence enhancement: 1 mg ml^−1 protein; for increase in ThT fluorescence: 30 min. at room temperature (FIG. 4D, E); for ThT fluorescence enhancement: overnight. In kind it is physicochemical. The protocol:
Fluorescence of ThT-protein/peptide adducts was measured as follows. […] Fluorescence was measured at 485 nm upon excitation at 435 nm. Background signals from buffer, buffer with ThT and protein/peptide solution without ThT were subtracted from corresponding measurements with protein solution incubated with ThT. […] Fluorescence was measured in triplicate on a Hitachi F-4500 fluorescence spectrophotometer (Ltd., Tokyo, Japan).
Enhancement of ThT fluorescence was measured similarly as described above. […]

This is an account of results in patent US20080207488A1, “Method for Detecting Peptides Comprising a Cross-B Structure” (priority 2005, published 2008).

T3 sequence (P11021 19-654): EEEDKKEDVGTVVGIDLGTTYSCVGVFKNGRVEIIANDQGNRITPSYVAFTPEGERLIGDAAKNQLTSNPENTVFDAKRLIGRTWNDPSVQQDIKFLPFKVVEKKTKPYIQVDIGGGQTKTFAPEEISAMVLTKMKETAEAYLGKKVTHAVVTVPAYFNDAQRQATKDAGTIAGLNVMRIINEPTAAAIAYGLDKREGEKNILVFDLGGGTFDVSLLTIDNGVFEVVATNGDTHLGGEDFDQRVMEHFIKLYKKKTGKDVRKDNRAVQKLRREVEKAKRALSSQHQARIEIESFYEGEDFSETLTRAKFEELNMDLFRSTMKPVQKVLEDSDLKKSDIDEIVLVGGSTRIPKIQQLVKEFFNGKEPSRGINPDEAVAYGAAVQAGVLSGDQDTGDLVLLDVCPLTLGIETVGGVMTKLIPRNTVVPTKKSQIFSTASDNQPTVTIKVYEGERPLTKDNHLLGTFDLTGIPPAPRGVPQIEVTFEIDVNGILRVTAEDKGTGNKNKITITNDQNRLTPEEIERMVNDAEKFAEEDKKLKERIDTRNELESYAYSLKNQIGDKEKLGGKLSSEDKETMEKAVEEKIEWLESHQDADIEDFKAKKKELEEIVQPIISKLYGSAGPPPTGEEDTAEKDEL
T2 sequence (Q07954 3332-3778 limits assumed): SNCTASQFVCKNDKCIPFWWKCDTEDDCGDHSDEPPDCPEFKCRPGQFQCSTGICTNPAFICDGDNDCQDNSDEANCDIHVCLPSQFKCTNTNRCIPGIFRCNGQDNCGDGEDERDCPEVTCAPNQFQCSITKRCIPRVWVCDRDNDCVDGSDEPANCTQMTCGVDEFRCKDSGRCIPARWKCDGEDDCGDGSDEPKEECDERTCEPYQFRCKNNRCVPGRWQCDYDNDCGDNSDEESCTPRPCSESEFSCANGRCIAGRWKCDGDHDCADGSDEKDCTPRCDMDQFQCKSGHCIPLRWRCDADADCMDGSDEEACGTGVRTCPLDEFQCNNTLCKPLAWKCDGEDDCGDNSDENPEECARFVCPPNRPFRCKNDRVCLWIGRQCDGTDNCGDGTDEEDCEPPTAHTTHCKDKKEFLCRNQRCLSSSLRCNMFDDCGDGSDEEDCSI
T1 sequence (P00750 36-562): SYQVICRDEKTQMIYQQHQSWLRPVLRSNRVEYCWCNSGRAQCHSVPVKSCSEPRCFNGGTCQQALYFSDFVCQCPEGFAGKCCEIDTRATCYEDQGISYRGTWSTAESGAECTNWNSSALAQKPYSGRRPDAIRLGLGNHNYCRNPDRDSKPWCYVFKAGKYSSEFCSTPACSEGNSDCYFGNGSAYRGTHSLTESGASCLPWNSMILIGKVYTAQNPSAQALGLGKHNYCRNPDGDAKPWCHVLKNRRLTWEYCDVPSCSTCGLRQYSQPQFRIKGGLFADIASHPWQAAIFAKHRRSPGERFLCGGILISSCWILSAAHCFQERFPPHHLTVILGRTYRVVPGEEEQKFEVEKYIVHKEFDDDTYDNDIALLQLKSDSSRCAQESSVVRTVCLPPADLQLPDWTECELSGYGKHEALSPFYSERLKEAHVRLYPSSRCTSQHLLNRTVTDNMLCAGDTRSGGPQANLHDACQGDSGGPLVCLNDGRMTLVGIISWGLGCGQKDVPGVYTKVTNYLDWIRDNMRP

Turning to “Abciximab: abciximab, an inhibitor of blood platelet aggregation (ReoPro, Centocor)”, the “tPA Binding Bmax (OD450 nm)” value in the data set with tPA was found to be 0.5329 OD450 nm. For the same substance, the “amyloid-like properties after exposure to harsh denaturing conditions (low pH, heat)” value in data set [1] was “amyloid-like properties are adopted”.
With “albumin-AGE: advanced glycation end-product modified bovine serum albumin”, the “binding of LRP cl-IV” value in the data set with LRP cl-IV is listed as “binds specifically”. In the data set with human BiP, the “binding of BiP (detection anti-FLAG-HRP)” value is listed as “high affinity”. Further, in the data set with human BiP (FIG. 7A), the “binding of BiP (detection Ni-NTA-HRP)” value is listed as “low affinity”.
Turning to lysozyme: chicken egg-white lysozyme, the “increased ThT fluorescence” value in data set [2] (1 mg ml^−1 protein exposed to 21.4 μg ml^−1 CPG-ODN (FIG. 4F)) is “no effect”. Besides, the figures for the “increase in ThT fluorescence” value in data set [2] (10.4 μg ml^−1 CPG-ODN) and in data set [2] (21.7 μg ml^−1 CPG-ODN) were “approximately 8 times” and around 7 times, respectively. Also, the ThT fluorescence enhancement came out at 1.1 factor in data set [2] (10.7 μg ml^−1 CPG-ODN), 1.2 factor in data set [2] (21.4 μg ml^−1 CPG-ODN) and 1.4 factor in data set [2] (42.8 μg ml^−1 CPG-ODN).
